Results reported in US20170015742A1 (published 2017).
Residue numbers refer to the chain shown, from its start. Names and notes keep the numbering of the source.

B1: hVEGF 4G8.3-GS-hPDGF 9E8.4 [hu IgG1/k] mut(234, 235) H435A (bispecific antibody)
heavy: EVQLVQSGSELKKPGASVKVSCKASGYTFTNYGMYWVRQAPGQGLEWMGWINTETGKPTYADDFKGRFVFSLDTSVSTAYLQISSLKAEDTAVYYCARTNYYYRSYIFYFDYWGQGTMVTVSSGGGGSGGGGSEVTLRESGPALVKPTQTLTLTCTFSGFSLSTYGMGVGWIRQPPGKALEWLANIWWDDDKYYNPSLKNRLTISKDTSKNQVVLTMTNMDPVDTATYYCARIESIGTTYSFDYWGQGTMVTVSSASTKGPSVFPLAPSSKSTSGGTAALGCLVKDYFPEPVTVSWNSGALTSGVHTFPAVLQSSGLYSLSSVVTVPSSSLGTQTYICNVNHKPSNTKVDKKVEPKSCDKTHTCPPCPAPEAAGGPSVFLFPPKPKDTLMISRTPEVTCVVVDVSHEDPEVKFNWYVDGVEVHNAKTKPREEQYNSTYRVVSVLTVLHQDWLNGKEYKCKVSNKALPAPIEKTISKAKGQPREPQVYTLPPSREEMTKNQVSLTCLVKGFYPSDIAVEWESNGQPENNYKTTPPVLDSDGSFFLYSKLTVDKSRWQQGNVFSCSVMHEALHNAYTQKSLSLSPGK
light: DTVLTQSPATLSLSPGERATLSCRASESVSTHMHWYQQKPGQAPRLLIYGASNLESGVPARFSGSGSGTDFTLTISSLEPEDFAVYFCQQSWNDPFTFGQGTKLEIKRGGSGGGGSGEFVLTQSPGTLSLSPGERATLSCERSSGDIGDSYVSWYQQKPGQAPRLVIYADDQRPSGIPDRFSGSGSGTDFTLTISRLEPEDFAVYYCQSYDINIDIVFGGGTKVEIKGTVAAPSVFIFPPSDEQLKSGTASVVCLLNNFYPREAKVQWKVDNALQSGNSQESVTEQDSKDSTYSLSSTLTLSKADYEKHKVYACEVTHQGLSSPVTKSFNRGEC
notes: DVD-Ig, outer anti-VEGF hBDB-4G8.3, inner anti-PDGF hBDI-9E8.4; also called 4G8.3-GS-9E8.4
B2: chBDI-1E1 (antibody, human IgG1, V domains shown)
VH: EVKLQQSGDELVRPGASVKMSCKASGYTFTDYVMHWVKQSPGQGLEWIGTIIPLIDTTSYNQKFKGKATLTADKSSNTAYMELSRLTSEDSAVYYCARTSPYYYSSYDVMDAWGQGASVTVSS
VL: NIQLTQSPSLLSASVGDRVTLSCKGSQNINNYLAWYQQKLGEAPKLLIYKTNNLQTGIPSRFSGCGSGTDYTLTISSLHSEDLATYYCYQYDNGYTFGAGTKLELK
notes: also called chimeric BDI-1E1-D5
B3: hVEGF 4G8.3-SL-hPDGF 9E8.4 [hu IgG1/k] mut(234, 235) H435A (bispecific antibody)
heavy: EVQLVQSGSELKKPGASVKVSCKASGYTFTNYGMYWVRQAPGQGLEWMGWINTETGKPTYADDFKGRFVFSLDTSVSTAYLQISSLKAEDTAVYYCARTNYYYRSYIFYFDYWGQGTMVTVSSASTKGPEVTLRESGPALVKPTQTLTLTCTFSGFSLSTYGMGVGWIRQPPGKALEWLANIWWDDDKYYNPSLKNRLTISKDTSKNQVVLTMTNMDPVDTATYYCARIESIGTTYSFDYWGQGTMVTVSSASTKGPSVFPLAPSSKSTSGGTAALGCLVKDYFPEPVTVSWNSGALTSGVHTFPAVLQSSGLYSLSSVVTVPSSSLGTQTYICNVNHKPSNTKVDKKVEPKSCDKTHTCPPCPAPEAAGGPSVFLFPPKPKDTLMISRTPEVTCVVVDVSHEDPEVKFNWYVDGVEVHNAKTKPREEQYNSTYRVVSVLTVLHQDWLNGKEYKCKVSNKALPAPIEKTISKAKGQPREPQVYTLPPSREEMTKNQVSLTCLVKGFYPSDIAVEWESNGQPENNYKTTPPVLDSDGSFFLYSKLTVDKSRWQQGNVFSCSVMHEALHNAYTQKSLSLSPGK
light: DTVLTQSPATLSLSPGERATLSCRASESVSTHMHWYQQKPGQAPRLLIYGASNLESGVPARFSGSGSGTDFTLTISSLEPEDFAVYFCQQSWNDPFTFGQGTKLEIKRTVAAPSVFIFPPEFVLTQSPGTLSLSPGERATLSCERSSGDIGDSYVSWYQQKPGQAPRLVIYADDQRPSGIPDRFSGSGSGTDFTLTISRLEPEDFAVYYCQSYDINIDIVFGGGTKVEIKGTVAAPSVFIFPPSDEQLKSGTASVVCLLNNFYPREAKVQWKVDNALQSGNSQESVTEQDSKDSTYSLSSTLTLSKADYEKHKVYACEVTHQGLSSPVTKSFNRGEC
notes: DVD-Ig, outer hBDB-4G8.3, inner hBDI-9E8.4, HG-short/LK-long; also called 4G8.3-SL-9E8.4
B4: hBCU-6B1.2 (antibody, V domains shown)
VH: EVQLVQSGAEVKKPGASVKVSCKASGYTFTNYGMYWVKQAPGQGLEFMGWINTETGQPTYADDFKGRFTFTLDTSTSTAYMELRSLRSDDTAVYFCARLGNNYGIWFAYWGQGTLVTVSS
VL: DIQMTQSPSSLSASVGDRVTIECRASDDLYSTLAWYQQKPGKSPKLLIFDANRLAAGVPSRFSGSGSGTDYSLTISSLQPEDVATYFCQQYNKFPWTFGGGTKVEIK
notes: Humanized anti-human VEGFR II IgG from pHybE expression vectors
B5: hBCU-6B1.4 (antibody, V domains shown)
VH: B4 VH with K38R, F95Y
VL: B4 VL with E22T, S72T
notes: as for B4
B6: hBCU-6B1.3 (antibody, V domains shown)
VH: B4 VH with K38R, F95Y
VL: B4 VL
notes: as for B4
B7: hBCU-6B1.1 (antibody, V domains shown)
VH: EVQLVQSGSELKKPGASVKVSCKASGYTFTNYGMYWVKQAPGQGLEFMGWINTETGQPTYADDFKGRFVFSLDTSVSTAYLQISSLKAEDTAVYFCARLGNNYGIWFAYWGQGTLVTVSS
VL: B4 VL
notes: as for B4
B8: 9E10.1_GS_CL-33675 (bispecific antibody, human IgG1, kappa, L234A L235A)
heavy: EIQLVQSGSELKKPGASVKVSCKASGYTFTNYGMYWVKQAPGQGLEYMGWIDTETGRPTYADDFKGRFVFSLDTSVSTAYLQISSLKAEDTAVYFCARWSGDTTGIRGPWFAYWGQGTLVTVSSGGGGSGGGGSEVTLRESGPALVKPTQTLTLTCTFSGFSLSTYGMGVGWIRQPPGKALEWLANIWWDDDKYYNPSLKNRLTISKDTSKNQVVLTMTNMDPVDTATYYCARIESSGPKYSFDYWGQGTMVTVSSASTKGPSVFPLAPSSKSTSGGTAALGCLVKDYFPEPVTVSWNSGALTSGVHTFPAVLQSSGLYSLSSVVTVPSSSLGTQTYICNVNHKPSNTKVDKKVEPKSCDKTHTCPPCPAPEAAGGPSVFLFPPKPKDTLMISRTPEVTCVVVDVSHEDPEVKFNWYVDGVEVHNAKTKPREEQYNSTYRVVSVLTVLHQDWLNGKEYKCKVSNKALPAPIEKTISKAKGQPREPQVYTLPPSREEMTKNQVSLTCLVKGFYPSDIAVEWESNGQPENNYKTTPPVLDSDGSFFLYSKLTVDKSRWQQGNVFSCSVMHEALHNAYTQKSLSLSPGK
light: DIRMTQSPSSLSASVGDRVTIECLASEDIYSDLAWYQQKPGKSPKLLIYNANGLQNGVPSRFSGSGSGTDYSLTISSLQPEDVATYFCQQYNYFPGTFGQGTKLEIKGGSGGGGSGGEIVLTQSPGTLSLSPGERATLSCRASSGSIWYSFVSWYQQKPGQAPRLLIYADDQRASGIPDRFSGSGSGTDFTLTISRLEPEDFAVYYCQSYGINIDVVFGGGTKVEIKRTVAAPSVFIFPPSDEQLKSGTASVVCLLNNFYPREAKVQWKVDNALQSGNSQESVTEQDSKDSTYSLSSTLTLSKADYEKHKVYACEVTHQGLSSPVTKSFNRGEC
notes: DVD-Ig, outer hBEW-9E10.1, inner CL-33675, GS-H10/GS-L10(dR), hu IgG1/k LALA H435A; also called PR-1610561; 9E10.1-GS-33675

How the values were obtained:
[1] = target: T1, recombinant human PDGF-BB (human, UniProt P01127 82-190); test: cell-based or functional assay
T1 sequence (P01127 82-190 limits assumed): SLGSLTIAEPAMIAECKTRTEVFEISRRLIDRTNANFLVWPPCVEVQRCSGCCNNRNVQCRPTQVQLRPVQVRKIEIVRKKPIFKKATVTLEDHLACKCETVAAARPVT

[2] = target: T2, recombinant human VEGF165 (human, UniProt P15692 207-395); test: cell-based or functional assay
T2 sequence (P15692 other isoform, or with tags, fused parts or gaps limits assumed): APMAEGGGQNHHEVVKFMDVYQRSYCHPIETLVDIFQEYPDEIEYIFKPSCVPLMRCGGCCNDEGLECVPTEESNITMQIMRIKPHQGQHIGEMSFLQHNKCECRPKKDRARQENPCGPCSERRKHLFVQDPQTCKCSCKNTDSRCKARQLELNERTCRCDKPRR

[3] = target: T2, recombinant human VEGF165; test: competition ELISA: blocks biotinylated hVEGF165 binding to coated hVEGF-R2-Fc
Procedure: To identify molecules that could block the binding of hVEGF₁₆₅ to the hVEGF-R2 (KDR/Flk-1) receptor, a competition ELISA was performed. […] Plates were then washed four times with wash buffer (TBS, 0.05% Tween-20) and blocked with Superblock blocking buffer (Thermo Scientific, cat#37535). […] The pre-incubated sample/hVEGF₁₆₅ complex was added to the coated plate at 50 μL in duplicate and incubated for 30 minutes at 25° C. with shaking. Following incubation, plates were washed four times with wash buffer. Streptavidin-polyHRP-40 (Fitzgerald cal#65r-s104phrp) was diluted in assay diluent (10% Superblock containing 0.05% surfactamps) and added to plates (50 μL) for 45 minutes at 25° C. with shaking. Plates were washed four times with wash buffer and developed with the addition of Enhanced K-blue TMB substrate (Neogen cat#308177). The reaction was stopped with 2N sulfuric acid (VWR, cat# BDH3500-1) and the absorbance was read at 450 nm-570 nm. A decrease in observed optical density indicates the test molecule is blocking the hVEGF₁₆₅ binding to the hVEGF-R2-Fc. Data was analyzed using Softmax Pro 4.8 software and IC₅₀ values calculated using a sigmoidal dose response (variable slope) fit in GraphPad Prism 5.

[4] = target: T1, recombinant human PDGF-BB; test: competition ELISA: blocks hPDGF-BB-biotin binding to coated hPDGF-Rβ-Fc
Procedure: (§1) Plates were then washed four times with wash buffer (TBS, 0.05% Tween-20) and blocked with Superblock blocking buffer (Thermo Scientific, cat#37535). During the blocking step, supernatants, antibodies, benchmark compounds or DVD-Ig were diluted in assay diluent (10% Superblock containing 0.05% surfactamps) and an eight point titration of each sample molecule was performed. […] Following incubation, plates were washed four times with wash buffer. Detection reagent Streptavidin-polyHRP-40 (Fitzgerald, cat#65r-s104phrp) was diluted in assay diluent and added to plates (50 μL) for 45 minutes at 25° C. with shaking. Plates were washed four times with wash buffer and developed with the addition of Enhanced K-blue TMB substrate (Neogen, cat#308177). The reaction was stopped with 2N sulfuric acid (VWR, cat# BDH3500-1) and the absorbance was read at 450 nm-570 nm. […] Data was analyzed using Softmax Pro 4.8 software and IC₅₀ values calculated using a sigmoidal dose response (variable slope) fit in GraphPad Prism 5.

[5] = target: T3, recombinant human PDGF-BB (human, UniProt P01127 82-190, biotin-labelled in the binding and competition ELISAs (sites not given)); test: receptor competition ELISA: antibody pre-incubated with biotin-hPDGF-BB, binding to coated hPDGF-Rβ-Fc
T3 construct: Bought protein (CST cat#8912BF) in the ELISAs and cell assays; purified recombinant PDGF-BB in Biacore; also called huPDGF-BB; hPDGF-BB
T3 sequence (P01127 82-190 limits assumed): as the sequence (P01127 82-190 limits assumed) above
Procedure: as §1

[6] = target: T3, recombinant human PDGF-BB; test: cell-based or functional assay
[7] = target: T4, recombinant human VEGF-R2-Fc (human, UniProt P35968 20-764); test: competition ELISA: antibody added to coated hVEGF-R2-Fc, then biotinylated hVEGF165 (competitor)
T4 construct: Bought Fc fusion (R&D Systems cat#357-KD); also called hVEGFR2-Fc; VEGF-R2 (KDR/Flk-1); not shown: Fc part of the bought fusion protein
T4 sequence (P35968 20-764 limits assumed): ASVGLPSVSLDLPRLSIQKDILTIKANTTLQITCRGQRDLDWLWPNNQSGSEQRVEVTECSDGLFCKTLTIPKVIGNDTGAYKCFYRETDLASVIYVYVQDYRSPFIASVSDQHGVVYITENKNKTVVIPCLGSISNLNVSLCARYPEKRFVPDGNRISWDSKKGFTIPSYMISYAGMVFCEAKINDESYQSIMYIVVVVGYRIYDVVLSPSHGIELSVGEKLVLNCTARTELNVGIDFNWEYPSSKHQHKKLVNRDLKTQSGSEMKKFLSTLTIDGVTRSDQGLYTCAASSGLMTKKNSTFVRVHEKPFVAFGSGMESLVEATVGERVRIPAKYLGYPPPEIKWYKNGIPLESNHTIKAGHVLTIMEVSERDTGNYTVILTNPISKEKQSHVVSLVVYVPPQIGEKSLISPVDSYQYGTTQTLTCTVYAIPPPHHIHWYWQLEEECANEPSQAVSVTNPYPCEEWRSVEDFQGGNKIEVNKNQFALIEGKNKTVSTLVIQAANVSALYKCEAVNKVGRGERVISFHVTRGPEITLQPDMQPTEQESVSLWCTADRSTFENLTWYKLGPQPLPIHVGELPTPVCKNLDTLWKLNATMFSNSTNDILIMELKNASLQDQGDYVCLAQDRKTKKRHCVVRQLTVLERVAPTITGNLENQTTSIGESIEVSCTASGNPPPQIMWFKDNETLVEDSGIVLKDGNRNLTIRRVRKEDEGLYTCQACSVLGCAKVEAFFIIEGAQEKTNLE
Procedure: To identify molecules which could block the binding of VEGF-R2 (KDR/Flk-1) to hVEGF₁₆₅, a competition ELISA was performed. […] Plates were then washed four times with wash buffer (TBS, 0.05% Tween-20) and blocked with Superblock blocking buffer (Thermo Scientific, cat#37535). […] The samples were added to wells and incubated for 30 minutes at 25° C. with shaking. […] Following incubation, plates were washed four times with wash buffer. Streptavidin-polyHRP-40 (Fitzgerald cat#65r-s104phrp) was diluted in assay diluent (10% Superblock containing 0.05% surfactamps) and added to plates (50 μL) for 45 minutes at 25° C. with shaking. Plates were washed four times with wash buffer and developed with the addition of Enhanced K-blue TMB substrate (Neogen cat#308177). The reaction was stopped with 2N sulfuric acid (VWR, cat# BDH3500-1) and the absorbance was read at 450 nm-570 nm. A decrease in observed optical density indicates the test molecule is blocking the human VEGF-R2-Fc binding to hVEGF₁₆₅. Data was analyzed using Softmax Pro 4.8 software and IC₅₀ values calculated using a sigmoidal dose response (variable slope) fit in GraphPad Prism 5.
Humanized anti-VEGFR2 antibodies were tested for potency against hVEGFR2 in functional assay formats. The antibodies were characterized for the ability to block VEGFR2 binding to hVEGF₁₆₅ in a competition ELISA format (Example 1.22).

Row | Potency IC50 (nM) NIH-3T3 hPDGF-BB [1] | Potency IC50 (nM) HMVEC-d hVEGF165 [2] | IC50 [3] | IC50 [4] | IC50 [7] | also measured | Binder
1 | 0.63 nM | 0.341 nM | 0.137 nM | > 5 nM | – | – | B1
2 | – | – | – | – | – | IC50 [5]: 0.417 nM; huPDGF-BB Neutralization Potency (nM) in NIH-3T3 Cells [6]: > 5 nM | B2
3 | 0.427 nM | 0.36 nM | 0.133 nM | > 5 nM | – | – | B3
4 | – | – | – | – | 0.34 nM | – | B4
5 | – | – | – | – | 0.335 nM | – | B5
6 | – | – | – | – | 0.319 nM | – | B6
7 | – | – | – | – | 0.474 nM | – | B7
8 | 0.034 nM | 0.145 nM | 0.045 nM | 0.09 nM | – | – | B8
